Test results: patent publication US9062100B2, “Anti-human TROP-2 antibody having anti-tumor activity in vivo” (LIVTECH, INC., dated 2015)
Where no end group is shown, it is not given here.

Experiments:
[1] = biological target: T1, human TROP-2 (hTROP-2) (human); assay: FACS on PK-59 cells
T1 chain: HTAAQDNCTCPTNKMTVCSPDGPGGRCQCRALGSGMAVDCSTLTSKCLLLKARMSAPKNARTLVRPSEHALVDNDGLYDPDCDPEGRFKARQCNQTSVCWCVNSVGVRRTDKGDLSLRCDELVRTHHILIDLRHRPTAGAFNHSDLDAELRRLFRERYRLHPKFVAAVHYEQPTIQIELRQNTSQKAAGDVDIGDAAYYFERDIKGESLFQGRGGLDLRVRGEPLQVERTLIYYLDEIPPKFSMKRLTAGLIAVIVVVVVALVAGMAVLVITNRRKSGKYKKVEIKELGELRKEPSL

[2] = biological target: T1, human TROP-2 (hTROP-2); assay: FACS on BxPC-3 cells
[3] = biological target: T2, Table 8 peptide No. 1 (human, not fully specified); assay: PEPSCAN CLIPS peptide ELISA
T2 peptide: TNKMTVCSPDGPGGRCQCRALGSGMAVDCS

[4] = biological target: T3, Table 8 peptide No. 2 (human, not fully specified); assay: PEPSCAN CLIPS peptide ELISA
T3 peptide: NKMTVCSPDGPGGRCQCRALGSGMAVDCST

[5] = biological target: T4, Table 8 peptide No. 3 (human, not fully specified); assay: PEPSCAN CLIPS peptide ELISA
T4 peptide: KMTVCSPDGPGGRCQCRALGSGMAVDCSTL

[6] = biological target: T5, Table 8 peptide No. 4 (human, not fully specified); assay: PEPSCAN CLIPS peptide ELISA
T5 peptide: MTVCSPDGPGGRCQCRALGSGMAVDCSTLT

[7] = biological target: T6, Table 8 peptide No. 5 (human, not fully specified); assay: PEPSCAN CLIPS peptide ELISA
T6 peptide: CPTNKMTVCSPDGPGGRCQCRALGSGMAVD

[8] = biological target: T7, Table 8 peptide No. 6 (human, not fully specified); assay: PEPSCAN CLIPS peptide ELISA
T7 peptide: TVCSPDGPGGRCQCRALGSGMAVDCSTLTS

[9] = biological target: T8, Table 8 peptide No. 7 (human, not fully specified); assay: PEPSCAN CLIPS peptide ELISA
T8 peptide: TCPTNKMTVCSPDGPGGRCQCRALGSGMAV

[10] = biological target: T9, Table 8 peptide No. 8 (human, not fully specified); assay: PEPSCAN CLIPS peptide ELISA
T9 peptide: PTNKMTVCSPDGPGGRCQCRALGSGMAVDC

[11] = biological target: T10, Table 8 peptide No. 9 (human, not fully specified); assay: PEPSCAN CLIPS peptide ELISA
T10 peptide: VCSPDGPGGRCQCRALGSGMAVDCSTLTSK

[12] = biological target: T11, Table 8 peptide No. 10 (human, not fully specified); assay: PEPSCAN CLIPS peptide ELISA
T11 peptide: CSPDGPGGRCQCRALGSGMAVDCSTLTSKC

[13] = biological target: T12, Table 8 peptide No. 13 (human, not fully specified); assay: PEPSCAN CLIPS peptide ELISA
T12 peptide: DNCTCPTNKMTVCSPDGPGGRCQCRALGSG

[14] = biological target: T13, Table 8 peptide No. 14 (human, not fully specified); assay: PEPSCAN CLIPS peptide ELISA
T13 peptide: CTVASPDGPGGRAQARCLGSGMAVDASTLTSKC

[15] = biological target: T14, Table 8 peptide No. 15 (human, not fully specified); assay: PEPSCAN CLIPS peptide ELISA
T14 peptide: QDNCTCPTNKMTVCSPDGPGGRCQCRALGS

[16] = biological target: T15, Table 8 peptide No. 16 (human, not fully specified); assay: PEPSCAN CLIPS peptide ELISA
T15 peptide: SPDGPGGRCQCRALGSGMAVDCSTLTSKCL

[17] = biological target: T16, Table 8 peptide No. 17 (human, not fully specified); assay: PEPSCAN CLIPS peptide ELISA
T16 peptide: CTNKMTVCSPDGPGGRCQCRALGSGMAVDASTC

[18] = biological target: T17, Table 8 peptide No. 18 (human, not fully specified; cysteine pairing not given here); assay: PEPSCAN CLIPS peptide ELISA
T17 peptide: TVCSPDGPGGRCQCR

[19] = biological target: T18, Table 8 peptide No. 19 (human, not fully specified); assay: PEPSCAN CLIPS peptide ELISA
T18 peptide: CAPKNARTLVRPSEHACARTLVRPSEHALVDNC

[20] = biological target: T19, Table 8 peptide No. 20 (human, not fully specified); assay: PEPSCAN CLIPS peptide ELISA
T19 peptide: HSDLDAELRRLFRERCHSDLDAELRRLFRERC

[21] = biological target: T20, recombinant protein of the extracellular region of hTROP-2 (human); assay: ELISA of free antibody after equilibration with antigen in solution
T20 sequence: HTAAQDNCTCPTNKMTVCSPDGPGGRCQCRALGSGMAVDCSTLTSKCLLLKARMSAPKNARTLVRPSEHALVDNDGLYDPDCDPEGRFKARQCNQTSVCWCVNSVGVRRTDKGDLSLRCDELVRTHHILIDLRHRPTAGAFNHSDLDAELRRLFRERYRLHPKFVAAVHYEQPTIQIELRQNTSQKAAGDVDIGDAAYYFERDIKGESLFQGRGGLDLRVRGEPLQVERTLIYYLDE

B1: anti-hTROP-2 monoclonal antibody K5-107 (antibody, V domains shown)
VH: QVQLQQPGSELVRPGASVKLSCKASGYTFTSYWMHWVKQRHGQGLEWIGNIYPGGGYTNYDEKFKSKGTLTVDTSSSTAYMHLSSLTSEDSAVYYCTRSSVFDYWGQGTTLTVSS
VL: DILLTQSPAILSVSPGERVSFSCRASQNIGTSIHWFQQRTNGSPRLLIKYASESISGIPSRFSGSGSGTDFTLSINSVESEDIADYYCQQSNSWPFTFGSGTKLEIK
[1]
  mean fluorescence intensity, times that with PE-labeled anti-mouse IgG only: 89 times
[2]
  mean fluorescence intensity, times that with PE-labeled anti-mouse IgG only: 90 times
[3]
  binding of K5-107: 2760
[4]
  binding of K5-107: 2760
[5]
  binding of K5-107: 2750
[6]
  binding of K5-107: 2730
[7]
  binding of K5-107: 2720
[8]
  binding of K5-107: 2720
[9]
  binding of K5-107: 2720
[10]
  binding of K5-107: 2690
[11]
  binding of K5-107: 2660
[12]
  binding of K5-107: 2660
[13]
  binding of K5-107: 1520
[14]
  binding of K5-107: 1120
[15]
  binding of K5-107: 874
[16]
  binding of K5-107: 561
[17]
  binding of K5-107: 380
[18]
  binding of K5-107: 312
[19]
  binding of K5-107: 284
[20]
  binding of K5-107: 272
[21]
  Kd: 4.7 pM
